According to US20240352438A1, “MEANS AND METHODS FOR DETOXIFYING OCHRATOXIN A” (DSM Austria GmbH, priority 2021, published 2024):

Tests used:
[1] = Enzymatic activity comparison: activity remaining after 65° C. for 10 min at pH 6.0, relative to SEQ ID NO: 1; format: physicochemical
Protocol: To compare the temperature behavior and thermostability of selected enzymes to one another, enzyme was incubated at 65° C. for 10 min at pH 6.0. The enzymatic activity remaining after incubation was compared to the remaining activity of the enzyme of SEQ ID NO: 1 after incubation, the latter being set to 100%, see Table 16.

[2] = OTA detoxification activity assay (specific activity, fluorescence reduction ex/em 390/450 nm); format: biochemical; conditions: SEQ ID NO: 1 = 100%
In short: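 Recombinant enzyme preparation with 200 ng/mL OTA in 100 mM sodium phosphate, at pH 6.0 and pH 7.5, 37° C. Degradation followed as the fall in fluorescence at ex/em 390/450 nm. Specific activity taken from the initial linear slope; one unit degrades 1 μmol OTA per min at a starting OTA of […].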

Row | Molecule | Enzymatic activity remaining after incubation, compared to SEQ ID NO: 1 (set to 100%) [1] | Specific OTA detoxification activities in % compared to the enzyme of SEQ ID NO: 1, pH 6.0 [2] | Specific OTA detoxification activities in % compared to the enzyme of SEQ ID NO: 1, pH 7.5 [2]
1 | 128 (protein, exemplary polypeptide) MTTRTRILTAFLSLLAANACAADAAPAAPHTVVLRCARMFDGASGKLVDHPQLTIVGNKIVRIAQGDKAEVPAGAEVVDLGDATCLPGFIDAHVHLSGQSSDNWYGDFFDNMMRFPAEQALYGAYYARITLEAGFTSVRDVGSTDWVALGLRNAIDAGKVPGPRMLVSNYAVGSTGGHADQDPIPPHKLPLAGPLQGVCNGPEECRAAVRYQIKYGANVIKFMPSGGVLSLSDPVDAPELSQDEMNAVIGESHAWGRKVAAHAHGDKAAKMAVAAGVDSIEHGSFIEDDTLRAMKAKNVYLVPTISAIAHVEEKIGTFPPVIAEKGRAAAAHLRQTFRHAVQIGVPIALGTDAGVGAHGSNAREFRYMVENGLTPAQALLAGTANAARLLGTFDRVGTLEAGKLADVVAVPGNPIADITVTERPLFVMKDGVVVRRDAVR | 84% | 67% | 73%
2 | 145 (protein, exemplary polypeptide) MTTRTRILTAFLSLLAANACAADAAPAAPHTVVLRAARMFDGASGKLVDHPQLTIVGNKIVRIAQGDKAEVPAGAEVVDLGDATLLPGFIDAHVHLSGQSSDNWYGDFFDNMMRFPAEQALYGAYYARITLEAGFTSVRDVGSPDWVALGLRNAIDAGKVPGPRMLVSNYAVGSTGGHADQDPIPPHKLPLAGPLQGVCNGPEECRAAVRYQIKYGANVIKFMPSGGVLSLSDPVDAPELSQDEMNAVIGESHAWGRKVAAHAHGDKAAKMAVAAGVDSIEHGSFIEDDTLRAMKAKNVYLVPTISAIAHVEEKIGTFPPVIAEKGRAAAAHLRQTFRHAVQIGVPIALGTDAGVGAHGSNAREFRYMVENGLTPAQALLAGTANAARLLGTFDRVGTLEAGKLADVVAVPGNPIADITVTERPLFVMKDGVVVRRDAVR | 47% | 101% | 90%
3 | 143 (protein, exemplary polypeptide) MTTRTRILTAFLSLLAANACAADAAPAAPHTVVLRAARMFDGASGKLVDHPQLTIVGNKIVRIAQGDKAEVPAGAEVVDLGDATLLPGFIDAHVHLSGQSSDNWYGDFFDNMMRFPAEQALYGAYYARITLEAGFTSVRDVGSDDWVALGLRNAIDAGKVPGPRMLVSNYAVGSTGGHADQDPIPPHKLPLAGPLQGVCNGPEECRAAVRYQIKYGANVIKFMPSGGVLSLSDPVDAPELSQDEMNAVIGESHAWGRKVAAHAHGDKAAKMAVAAGVDSIEHGSFIEDDTLRAMKAKNVYLVPTISAIAHVEEKIGTFPPVIAEKGRAAAAHLRQTFRHAVQIGVPIALGTDAGVGAHGSNAREFRYMVENGLTPAQALLAGTANAARLLGTFDRVGTLEAGKLADVVAVPGNPIADITVTERPLFVMKDGVVVRRDAVR | 21% | 86% | 84%
4 | 141 (protein, exemplary polypeptide) MTTRTRILTAFLSLLAANACAADAAPAAPHTVVLRAARMFDGASGKLVDHPQLTIVGNKIVRIAQGDKAEVPAGAEVVDLGDATLLPGFIDAHVHLSGQSSDNWYGDFFDNMMRFPAEQALYGAYYARITLEAGFTSVRDVASTDWVALGLRNAIDAGKVPGPRMLVSNYAVGSTGGHADQDPIPPHKLPLAGPLQGVCNGPEECRAAVRYQIKYGANVIKFMPSGGVLSLSDPVDAPELSQDEMNAVIGESHAWGRKVAAHAHGDKAAKMAVAAGVDSIEHGSFIEDDTLRAMKAKNVYLVPTISAIAHVEEKIGTFPPVIAEKGRAAAAHLRQTFRHAVQIGVPIALGTDAGVGAHGSNAREFRYMVENGLTPAQALLAGTANAARLLGTFDRVGTLEAGKLADVVAVPGNPIADITVTERPLFVMKDGVVVRRDAVR | 55% | 138% | 123%
5 | 138 (protein, exemplary polypeptide) MTTRTRILTAFLSLLAANACAADAAPAAPHTVVLRAARMFDGASGKLVDHPQLTIVGNKIVRIAQGDKAEVPAGAEVVDLGDATLLPGFIDAHVHLPGQSSDNWYGDFFDNMMRFPAEQALYGAYYARITLEAGFTSVRDVGSTDWVALGLRNAIDAGKVPGPRMLVSNYAVGSTGGHADQDPIPPHKLPLAGPLQGVCNGPEECRAAVRYQIKYGANVIKFMPSGGVLSLSDPVDAPELSQDEMNAVIGESHAWGRKVAAHAHGDKAAKMAVAAGVDSIEHGSFIEDDTLRAMKAKNVYLVPTISAIAHVEEKIGTFPPVIAEKGRAAAAHLRQTFRHAVQIGVPIALGTDAGVGAHGSNAREFRYMVENGLTPAQALLAGTANAARLLGTFDRVGTLEAGKLADVVAVPGNPIADITVTERPLFVMKDGVVVRRDAVR | 27% | 46% | 29%
6 | 137 (protein, exemplary polypeptide) MTTRTRILTAFLSLLAANACAADAAPAAPHTVVLRAARMFDGASGKLVDHPQLTIVGNKIVRIAQGDKAEVPAGAEVVDLGDATLLPGFIDAHVHLNGQSSDNWYGDFFDNMMRFPAEQALYGAYYARITLEAGFTSVRDVGSTDWVALGLRNAIDAGKVPGPRMLVSNYAVGSTGGHADQDPIPPHKLPLAGPLQGVCNGPEECRAAVRYQIKYGANVIKFMPSGGVLSLSDPVDAPELSQDEMNAVIGESHAWGRKVAAHAHGDKAAKMAVAAGVDSIEHGSFIEDDTLRAMKAKNVYLVPTISAIAHVEEKIGTFPPVIAEKGRAAAAHLRQTFRHAVQIGVPIALGTDAGVGAHGSNAREFRYMVENGLTPAQALLAGTANAARLLGTFDRVGTLEAGKLADVVAVPGNPIADITVTERPLFVMKDGVVVRRDAVR | 48% | 86% | 93%
7 | 139 (protein, exemplary polypeptide) MTTRTRILTAFLSLLAANACAADAAPAAPHTVVLRAARMFDGASGKLVDHPQLTIVGNKIVRIAQGDKAEVPAGAEVVDLGDATLLPGFIDAHVHLTGQSSDNWYGDFFDNMMRFPAEQALYGAYYARITLEAGFTSVRDVGSTDWVALGLRNAIDAGKVPGPRMLVSNYAVGSTGGHADQDPIPPHKLPLAGPLQGVCNGPEECRAAVRYQIKYGANVIKFMPSGGVLSLSDPVDAPELSQDEMNAVIGESHAWGRKVAAHAHGDKAAKMAVAAGVDSIEHGSFIEDDTLRAMKAKNVYLVPTISAIAHVEEKIGTFPPVIAEKGRAAAAHLRQTFRHAVQIGVPIALGTDAGVGAHGSNAREFRYMVENGLTPAQALLAGTANAARLLGTFDRVGTLEAGKLADVVAVPGNPIADITVTERPLFVMKDGVVVRRDAVR | 40% | 141% | 88%
8 | 136 (protein, exemplary polypeptide) MTTRTRILTAFLSLLAANACAADAAPAAPHTVVLRAARMFDGASGKLVDHPQLTIVGNKIVRIAQGDKAEVPAGAEVVDLGDATLLPGFIDAHVHLDGQSSDNWYGDFFDNMMRFPAEQALYGAYYARITLEAGFTSVRDVGSTDWVALGLRNAIDAGKVPGPRMLVSNYAVGSTGGHADQDPIPPHKLPLAGPLQGVCNGPEECRAAVRYQIKYGANVIKFMPSGGVLSLSDPVDAPELSQDEMNAVIGESHAWGRKVAAHAHGDKAAKMAVAAGVDSIEHGSFIEDDTLRAMKAKNVYLVPTISAIAHVEEKIGTFPPVIAEKGRAAAAHLRQTFRHAVQIGVPIALGTDAGVGAHGSNAREFRYMVENGLTPAQALLAGTANAARLLGTFDRVGTLEAGKLADVVAVPGNPIADITVTERPLFVMKDGVVVRRDAVR | 36% | 64% | 48%
9 | 140 (protein, exemplary polypeptide) MTTRTRILTAFLSLLAANACAADAAPAAPHTVVLRAARMFDGASGKLVDHPQLTIVGNKIVRIAQGDKAEVPAGAEVVDLGDATLLPGFIDAHVHLVGQSSDNWYGDFFDNMMRFPAEQALYGAYYARITLEAGFTSVRDVGSTDWVALGLRNAIDAGKVPGPRMLVSNYAVGSTGGHADQDPIPPHKLPLAGPLQGVCNGPEECRAAVRYQIKYGANVIKFMPSGGVLSLSDPVDAPELSQDEMNAVIGESHAWGRKVAAHAHGDKAAKMAVAAGVDSIEHGSFIEDDTLRAMKAKNVYLVPTISAIAHVEEKIGTFPPVIAEKGRAAAAHLRQTFRHAVQIGVPIALGTDAGVGAHGSNAREFRYMVENGLTPAQALLAGTANAARLLGTFDRVGTLEAGKLADVVAVPGNPIADITVTERPLFVMKDGVVVRRDAVR | 34% | 118% | 120%
10 | 144 (protein, exemplary polypeptide) MTTRTRILTAFLSLLAANACAADAAPAAPHTVVLRAARMFDGASGKLVDHPQLTIVGNKIVRIAQGDKAEVPAGAEVVDLGDATLLPGFIDAHVHLSGQSSDNWYGDFFDNMMRFPAEQALYGAYYARITLEAGFTSVRDVGSEDWVALGLRNAIDAGKVPGPRMLVSNYAVGSTGGHADQDPIPPHKLPLAGPLQGVCNGPEECRAAVRYQIKYGANVIKFMPSGGVLSLSDPVDAPELSQDEMNAVIGESHAWGRKVAAHAHGDKAAKMAVAAGVDSIEHGSFIEDDTLRAMKAKNVYLVPTISAIAHVEEKIGTFPPVIAEKGRAAAAHLRQTFRHAVQIGVPIALGTDAGVGAHGSNAREFRYMVENGLTPAQALLAGTANAARLLGTFDRVGTLEAGKLADVVAVPGNPIADITVTERPLFVMKDGVVVRRDAVR | 28% | 78% | 95%
